Reference: patent US20050054026A1

The substances below were run against 9-fluorenylmethyloxycarbonyl (Fmoc)-glycyl-prolyl-glutamyl-glycyl-isoleucyl-alanyl-glycyl-tryptophanyl-glycine (Gly-Pro-Gln-Gly-Ile-Ala-Gly-Trp-Gly) (Artificial Sequence). Conditions: scale: fold.

degradation rate of Fmoc-… per unit weight of enzyme and unit time (first 15 minutes, RP-HPLC)	Substance
14.2	aminopeptidase-1 (enzyme)
38.8	carboxypeptidase A (enzyme)
26.9	collagenase (enzyme)
